Data taken from paper PMC11098746 (2024).

Experiments:
Experiment in all cases: AVEXIS screen signal:noise (double-corrected)
[1] = molecular target: T1, ADP377
T1 chain: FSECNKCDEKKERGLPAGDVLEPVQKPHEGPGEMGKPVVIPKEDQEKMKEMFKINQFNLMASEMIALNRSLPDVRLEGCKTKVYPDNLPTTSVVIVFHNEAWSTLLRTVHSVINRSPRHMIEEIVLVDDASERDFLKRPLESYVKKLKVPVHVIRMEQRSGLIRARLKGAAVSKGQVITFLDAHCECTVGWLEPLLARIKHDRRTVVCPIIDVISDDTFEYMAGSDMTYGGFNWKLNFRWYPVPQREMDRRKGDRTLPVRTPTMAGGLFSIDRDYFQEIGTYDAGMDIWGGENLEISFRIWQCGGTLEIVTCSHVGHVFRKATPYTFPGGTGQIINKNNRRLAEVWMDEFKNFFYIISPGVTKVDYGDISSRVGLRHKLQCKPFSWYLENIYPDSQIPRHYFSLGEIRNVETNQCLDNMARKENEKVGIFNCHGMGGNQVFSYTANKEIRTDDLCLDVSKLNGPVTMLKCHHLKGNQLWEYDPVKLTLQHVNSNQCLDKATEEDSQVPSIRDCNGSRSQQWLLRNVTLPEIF

[2] = molecular target: T2, ADP381
T2 chain: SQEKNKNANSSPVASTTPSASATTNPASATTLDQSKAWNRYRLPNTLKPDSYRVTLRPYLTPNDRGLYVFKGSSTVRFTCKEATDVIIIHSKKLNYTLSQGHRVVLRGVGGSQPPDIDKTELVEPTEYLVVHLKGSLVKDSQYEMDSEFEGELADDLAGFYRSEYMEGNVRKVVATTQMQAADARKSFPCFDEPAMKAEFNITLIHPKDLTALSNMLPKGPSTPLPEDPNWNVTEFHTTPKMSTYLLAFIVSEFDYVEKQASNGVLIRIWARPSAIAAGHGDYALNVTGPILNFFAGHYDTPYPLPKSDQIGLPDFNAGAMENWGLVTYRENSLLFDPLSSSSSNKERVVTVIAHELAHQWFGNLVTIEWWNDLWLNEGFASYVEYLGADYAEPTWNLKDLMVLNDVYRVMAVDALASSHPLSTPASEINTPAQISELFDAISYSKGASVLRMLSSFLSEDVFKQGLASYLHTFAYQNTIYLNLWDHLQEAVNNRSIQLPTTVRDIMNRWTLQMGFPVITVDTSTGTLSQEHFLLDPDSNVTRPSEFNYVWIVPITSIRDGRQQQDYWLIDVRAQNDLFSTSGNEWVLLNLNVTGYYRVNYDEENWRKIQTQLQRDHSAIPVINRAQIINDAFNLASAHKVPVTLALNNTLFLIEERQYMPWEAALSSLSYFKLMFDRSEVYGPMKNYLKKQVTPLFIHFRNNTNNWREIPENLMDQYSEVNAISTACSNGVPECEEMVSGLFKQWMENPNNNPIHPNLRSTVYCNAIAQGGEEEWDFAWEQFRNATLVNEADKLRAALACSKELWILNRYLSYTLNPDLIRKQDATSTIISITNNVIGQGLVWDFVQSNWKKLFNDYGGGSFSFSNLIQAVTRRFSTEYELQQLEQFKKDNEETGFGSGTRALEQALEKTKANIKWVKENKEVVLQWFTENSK

[3] = molecular target: T3, ADP261
T3 chain: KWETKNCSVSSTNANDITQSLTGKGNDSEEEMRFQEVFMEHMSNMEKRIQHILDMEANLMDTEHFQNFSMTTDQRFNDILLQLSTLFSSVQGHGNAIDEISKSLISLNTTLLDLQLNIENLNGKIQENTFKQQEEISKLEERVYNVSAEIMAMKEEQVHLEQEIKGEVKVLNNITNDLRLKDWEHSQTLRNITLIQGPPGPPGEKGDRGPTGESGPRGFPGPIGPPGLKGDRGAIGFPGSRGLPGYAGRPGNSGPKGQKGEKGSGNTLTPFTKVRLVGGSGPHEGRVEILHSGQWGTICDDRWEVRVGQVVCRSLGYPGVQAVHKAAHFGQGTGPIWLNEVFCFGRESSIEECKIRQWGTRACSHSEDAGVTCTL

[4] = molecular target: T4, ADP279
T4 chain: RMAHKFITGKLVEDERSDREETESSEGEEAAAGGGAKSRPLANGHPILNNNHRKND

B1: ADP237 (protein)
chain: TKKKVSVSEINFDSAVDDVQWCGNNHMTVLVKTVKGRLYRSSDGGKIWTNIAGNLADKENNKADPSSNHMNEMTTVDLIMVNSVNKNIVLIIGNQKNHYISEDSGETFRLLNYQNKINFWQFHSTKTHWALVSSWTEACYSNDDNSGECMQTLSLTKDLGRTFQLIDIYVVQFNWGDKESHLEDTIYYTRHKNRNGHQQRFSGWSKDVDFVATHNFGKSVDVLVKQGNKFLISNGYIFVAKLNDVIKQTVNMMVSTDGGKTFNKANLPENIHEKSYTVLDTSEGSIMLHVNHGTSSEKINTGNVYISDASGLNYALSLPNNIRTSSGECEFDRVLSLDGVYIANFLDVNNEIKDEDLRFQNFKSAIEEDIAPFETNTEKRKKQYNKGKNEDAVRTVISFNKGGEWSYLKAPKVDSRGNKYECGDNCYLHLHGITNYHQYAPFYSIENAVGIIMGTGNVGSHLRYESDEVNTFLSRDGGVTWIEAHKGPYIYEYGDYGGLIVMADDLRKTNQIVFSWNEGQSWFDFELGQFSIDVDNIVAEPNSASVEFLVYGTRNDVGVLYHLDFNALGQPLCKGLWAADSVSSDYETWSPTSGNFNDKCILGRKITYTRRKQTSECFNGKDLKRTVDKKPCECTPEDYECETGFTRKIGSYECKPNDPTLTIEGCTSSSYFYANAYRKVPGDICVNGWVPEKVPVPCPSYAPFNKAAK
modifications: bait human Fc-tagged dimer; N-glycosylation sequons mutated in Plasmodium baits
binding score [1]: 11.5 | binding score [2]: 8.67 | binding score [3]: 19.5 | binding score [4]: 12.8
